Test results taken from the supplement of paper PMC10126150.
± gives the standard deviation of the averaged measurements.

System: ATP
Experiment: switch fluorescence ratio, 500 uM ATP over buffer (Cy3 cluster intensity, sum of 5 cycles each) (fold (ratio)); higher = stronger signal-on switching upon ATP binding; sequences stand for … in TCGTCGGCAGCGTCAGATGTGTATAAGAGACAGTTTTTTTTTTTTTTTTTTTTTTTTT…TC
Settings: aptamer strand: ATP DNA aptamer (quencher-CACCTGGGGGAGTATTGCGGAGGAAGG + anchor), 100 nM annealed; ATP concentration: 500 uM
Summary of the method: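 Cy3-labelled switching-strand clusters on a modified Illumina MiSeq flow-cell were annealed to 100 nM quencher-labelled ATP aptamer, imaged in selection buffer, then imaged after 15 min with 500 uM ATP at 22 °C. Five buffer/ATP cycles ran, with NaOH stripping and re-annealing between them. The fluorescence ratio is summed target-cycle over summed buffer-cycle Cy3 intensity per cluster, averaged per switch-domain sequence. Clusters outside 100-1000 RFU were excluded.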
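Note: ATP exposure 15 min at 22 °C before imaging.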

Sequence | switch fluorescence ratio
AACTGACGAA | 1.29 ± 0.019
AACTGGAGGA | 0.9715 ± 0.002
AACTGGCTGC | 0.993 ± 0.061
AACTGTGTG | 0.987 ± 0.043
AACTTAGTGG | 0.996 ± 0.028
AACTTCGGTG | 0.984 ± 0.014
AACTTCTGCC | 1.025 ± 0.0013
AACTTGAAAT | 1.47 ± 0.69
AACTTGTTTT | 1.02 ± 0.032
AACTTTAACT | 1.04 ± 0.014
AACTTTACTC | 1.55 ± 0.095
AACTTTAGTC | 0.994 ± 0.04
AACTTTAGTG | 0.991 ± 0.013
AACTTTAGTT | 1.02 ± 0.027
AACTTTTAAT | 1.019 ± 0.0032
AAGAAATCGG | 1.01 ± 0.018
AAGAACGGCG | 1.01 ± 0.052
AAGAAGAAAT | 1.04 ± 0.066
AAGAAGAGGT | 1.15 ± 0.17
AAGAAGCTTT | 1.27 ± 0.38
AAGAAGGTCC | 1.01 ± 0.019
AAGAAGTGTT | 1.003 ± 0.0039
AAGAATAAAT | 1 ± 0.029

Sequence | switch fluorescence ratio
AAGAATATGC | 0.978 ± 0.027
AAGACAGCGA | 1.41 ± 0.57
AAGACGCTAA | 1.18 ± 0.026
AAGACGTAGG | 1.06 ± 0.034
AAGACTAGTT | 0.999 ± 0.03
AAGACTCGGT | 0.9518 ± 0.0012
AAGAGAAAGT | 0.998 ± 0.028
AAGAGATAGT | 1 ± 0.0076
AAGAGATGTG | 0.985 ± 0.024
AAGAGGAAAA | 1 ± 0.024
AAGAGGAAGC | 0.984 ± 0.049
AAGAGGCGGA | 1 ± 0.026
AAGAGGGATG | 0.988 ± 0.043
AAGAGGGCAG | 0.992 ± 0.0081
AAGAGGGGCT | 1.015 ± 0.0018
AAGAGGGGGC | 0.986 ± 0.045
AAGAGGGGTT | 1.03 ± 0.062
AAGAGGTCTC | 0.9681 ± 0.0023
AAGAGGTGGG | 0.99 ± 0.024
AAGAGTAAGC | 0.963 ± 0.013
AAGAGTCGGG | 0.972 ± 0.051
AAGATACAGA | 1.07 ± 0.016
AAGATAGCGG | 0.9978 ± 6.2e-05

Sequence | switch fluorescence ratio
AAGATCAATA | 0.9967 ± 0.0044
AAGATCACGG | 0.971 ± 0.057
AAGATCATCT | 1.01 ± 0.023
AAGATCATTG | 0.98 ± 0.041
AAGATCCTTT | 0.986 ± 0.025
AAGATCTCTA | 1.01 ± 0.015
AAGATCTGCC | 1.04 ± 0.021
AAGATGAAT | 0.975 ± 0.04
AAGATGATGT | 0.986 ± 0.03
AAGATGCGTA | 0.978 ± 0.016
AAGATGCTTG | 0.998 ± 0.038
AAGATGGTAG | 0.971 ± 0.038
AAGATTAGTG | 0.9828 ± 0.0067
AAGATTGGGT | 1 ± 0.049
AAGCAATTAT | 1.53 ± 0.11
AAGCAGGGGC | 1.14 ± 0.16
AAGCAGTACC | 3.24 ± 0.72
AAGCATAGGG | 1.02 ± 0.015
AAGCATAGTC | 1.06 ± 0.036
AAGCATAGTT | 0.993 ± 0.011
AAGCATGGGC | 1.02 ± 0.029
AAGCCCAGGG | 1.403 ± 0.0054
AAGCCGCTAG | 1.11 ± 0.026

Sequence | switch fluorescence ratio
AAGCGACTCG | 1.006 ± 0.0056
AAGCGAGGGC | 1.06 ± 0.035
AAGCGCAGAC | 2.32 ± 0.079
AAGCGCTGTG | 1.03 ± 0.047
AAGCGGAAGG | 1.05 ± 0.02
AAGCGGAGAT | 1.02 ± 0.0065
AAGCGGGGGG | 1.03 ± 0.015
AAGCGGGTGG | 1.05 ± 0.028
AAGCGGTTG | 1.005 ± 0.006
AAGCGTAAAA | 0.979 ± 0.024
AAGCTAAATG | 1.01 ± 0.05
AAGCTAGGGA | 1.01 ± 0.05
AAGCTCCATT | 0.967 ± 0.016
AAGCTCGTTG | 1.01 ± 0.031
AAGCTGAAGT | 1.03 ± 0.035
AAGCTGACAG | 1.01 ± 0.013
AAGCTGTTAC | 1.6 ± 0.081
AAGCTTACGG | 1.06 ± 0.056
AAGCTTGCCT | 0.9871 ± 0.0013
AAGCTTGGCT | 0.965 ± 0.028
AAGGAAAACG | 0.969 ± 0.021
AAGGAAGACA | 0.995 ± 0.03
AAGGAAGCGT | 0.9883 ± 0.0045

Sequence | switch fluorescence ratio
AAGGAAGGCC | 1.0145 ± 0.00052
AAGGAAGTTT | 1.06 ± 0.18
AAGGAATGGT | 1.05 ± 0.041
AAGGAATTGG | 0.992 ± 0.0042
AAGGACTGAA | 0.9994 ± 0.0078
AAGGACTTGG | 1.01 ± 0.014
AAGGAGCAGT | 0.985 ± 0.13
AAGGAGGATT | 1 ± 0.028
AAGGAGGCTT | 1.05 ± 0.066
AAGGAGGGGC | 1.06 ± 0.13
AAGGAGGGT | 0.9965 ± 0.0096
AAGGAGGTCA | 0.977 ± 0.021
AAGGATAAAC | 1.01 ± 0.039
AAGGATATGG | 1.02 ± 0.016
AAGGATGCGA | 1.039 ± 0.0079
AAGGATGGCC | 1.01 ± 0.021
AAGGATGTTG | 0.9998 ± 0.0017
AAGGATTAAT | 0.987 ± 0.016
AAGGATTAGC | 1.04 ± 0.11
AAGGATTCGC | 1 ± 0.072
AAGGATTTTG | 0.994 ± 0.022
AAGGCAAATA | 1.04 ± 0.037
AAGGCAAGAT | 1.04 ± 0.064

Sequence | switch fluorescence ratio
AAGGCAAGGG | 1.01 ± 0.028
AAGGCAAGTG | 0.989 ± 0.054
AAGGCCTTCT | 0.994 ± 0.011
AAGGCGGATA | 0.96 ± 0.013
AAGGCGGGG | 0.991 ± 0.011
AAGGCGTACT | 1.03 ± 0.026
AAGGCTAAAA | 1.016 ± 0.0059
AAGGCTAAGC | 1.024 ± 0.0026
AAGGCTGAGT | 1 ± 0.0011
AAGGCTGGCT | 0.99 ± 0.027
AAGGCTGTAC | 1.71 ± 0.1
AAGGCTGTCT | 1.02 ± 0.049
AAGGCTTCGG | 0.998 ± 0.032
AAGGCTTTCT | 1.02 ± 0.032
AAGGGAAATT | 0.983 ± 0.025
AAGGGAATGA | 0.987 ± 0.016
AAGGGACAGC | 1.03 ± 0.021
AAGGGACATT | 1.01 ± 0.012
AAGGGACTCG | 1.04 ± 0.059
AAGGGAGCAA | 1.09 ± 0.037
AAGGGAGTCA | 0.992 ± 0.031
AAGGGATTCT | 1.03 ± 0.084
AAGGGATTTA | 1.04 ± 0.034

Sequence | switch fluorescence ratio
AAGGGCAACG | 0.974 ± 0.063
AAGGGCGATT | 1.02 ± 0.055
AAGGGCGTGG | 0.982 ± 0.02
AAGGGCTATT | 1 ± 0.029
AAGGGCTCAA | 1.02 ± 0.011
AAGGGCTTAC | 1.135 ± 0.0058
AAGGGCTTTT | 1.01 ± 0.036
AAGGGGAATT | 1.01 ± 0.049
AAGGGGACGA | 0.978 ± 0.033
AAGGGGAGGG | 1 ± 0.013
AAGGGGATCG | 1.03 ± 0.027
AAGGGGATTT | 0.975 ± 0.016
AAGGGGCAAT | 1.01 ± 0.055
AAGGGGCGCT | 1.01 ± 0.039
AAGGGGCTTA | 0.961 ± 0.013
AAGGGGGAAC | 1.002 ± 0.0052
AAGGGGGCTT | 0.9943 ± 0.0025
AAGGGGGGGG | 1.02 ± 0.055
AAGGGGGGTC | 0.991 ± 0.042
